The target of assay [1] is MbTEC^PH (isolated PH domain of Monosiga brevicollis TEC), wild type, labeled with Atto488 (Monosiga brevicollis). Briefly: fluorescence polarisation.
The target in assay [2] is MbTEC^PH (R28E) (Monosiga brevicollis). Description: fluorescence polarisation. On the technique in general: In fluorescence polarisation assays a small probe gives low polarisation when free and higher when bound to something large.
Assay [3] shares this target. Briefly: FP. The settings on record: domain or fragment.

For the substance “MbTEC^32K (SH3-SH2-kinase module of Monosiga brevicollis TEC), wild type (domain or fragment)”, the Kd in assay [1] came out at 4 µM. This substance gave a fold weakening against wild-type MbTEC^PH in assay [2] of 5 fold.

In assay [3], “MbTEC^32K (SH3-SH2-kinase module of Monosiga brevicollis TEC), wild type” came in with a Kd of 22.4 µM.

Usually Kd stands for the constant that tells how readily two partners part at equilibrium. A higher Kd goes with lower affinity.
